Reference: patent US20100273710 (published 2010)
Read-outs that look alike come from different tables or passages of the source.

How the values were obtained:
NOP receptor [1] = target: T1, NOP receptor (Homo sapiens, UniProt P41146); assay: competition, [3H]N/OFQ
NOP receptor [2] = target: T1, NOP receptor; assay: competition, [3H]N/OFQ; remark: listed apart in the source
MOP receptor = MOP receptor (Homo sapiens, UniProt P35372); assay: competition, [3H]-diprenorphine
DOP receptor = target: T2, DOP receptor (Homo sapiens, UniProt P41143); assay: competition, [3H]-diprenorphine
T2 chain: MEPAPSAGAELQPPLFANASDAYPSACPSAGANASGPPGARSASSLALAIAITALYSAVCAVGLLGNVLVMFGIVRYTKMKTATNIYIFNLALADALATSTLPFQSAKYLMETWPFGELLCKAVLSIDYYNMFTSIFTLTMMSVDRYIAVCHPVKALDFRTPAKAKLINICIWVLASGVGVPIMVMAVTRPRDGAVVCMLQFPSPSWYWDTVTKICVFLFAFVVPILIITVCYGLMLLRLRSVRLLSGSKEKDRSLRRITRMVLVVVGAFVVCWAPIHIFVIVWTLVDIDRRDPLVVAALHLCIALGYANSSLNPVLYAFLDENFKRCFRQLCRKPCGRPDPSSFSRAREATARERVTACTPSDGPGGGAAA

T1 sequence (P41146 whole entry): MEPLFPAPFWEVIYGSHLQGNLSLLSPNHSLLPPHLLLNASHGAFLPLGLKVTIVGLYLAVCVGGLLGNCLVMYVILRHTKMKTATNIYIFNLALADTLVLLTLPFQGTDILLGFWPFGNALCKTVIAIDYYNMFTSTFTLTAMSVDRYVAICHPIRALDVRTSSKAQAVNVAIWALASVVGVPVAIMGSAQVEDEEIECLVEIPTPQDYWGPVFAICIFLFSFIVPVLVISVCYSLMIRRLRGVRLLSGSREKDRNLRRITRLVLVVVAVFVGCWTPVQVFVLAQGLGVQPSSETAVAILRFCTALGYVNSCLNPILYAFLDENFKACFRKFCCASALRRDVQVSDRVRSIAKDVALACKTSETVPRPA
MOP receptor, sequence (P35372 whole entry): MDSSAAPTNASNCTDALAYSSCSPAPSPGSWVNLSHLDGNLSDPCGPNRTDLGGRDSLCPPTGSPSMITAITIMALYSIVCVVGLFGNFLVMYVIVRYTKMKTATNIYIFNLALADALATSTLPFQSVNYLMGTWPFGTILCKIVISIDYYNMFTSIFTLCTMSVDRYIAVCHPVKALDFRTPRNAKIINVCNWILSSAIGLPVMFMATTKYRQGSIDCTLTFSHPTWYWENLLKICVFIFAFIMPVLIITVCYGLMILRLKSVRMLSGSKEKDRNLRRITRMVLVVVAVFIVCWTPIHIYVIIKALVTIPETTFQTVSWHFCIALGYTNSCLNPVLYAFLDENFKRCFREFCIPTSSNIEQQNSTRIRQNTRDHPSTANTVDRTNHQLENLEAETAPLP

Q: XGGFTGXRKSARKRKNQ ([Nphe1,Aib7,Arg14,Lys15]N/OFQ-NH2; X1 = Nphe, X7 = Aib, C-terminal amide) [UFP-111] was tested. Which Ki (NOP receptor [1]) did it give?
A: 0.000178 µM

Q: And the Ki (NOP receptor [2])?
A: 0.0178 µM

Q: And the Ki (MOP receptor)?
A: > 10 µM

Q: And the Ki (DOP receptor)?
A: > 10 µM
